Key:
人CD3 = target: T1, 人CD3 (human, UniProt P07766 23-207); experiment: flow cytometry (FACS) on Jurkat cells, anti-human IgG Fc PE secondary
T1 construct: whole, on cells; Natural CD3 complex on Jurkat T cells (and CIK cells); also called Jurkat细胞表面人CD3分子

人ETA (内皮素受体A) = target: T2, 人ETA (内皮素受体A) (human, UniProt P25101 21-427); experiment: flow cytometry (FACS) on CHO-ETA cells, anti-human IgG Fc PE secondary
T2 construct: whole, on cells; The plasmid's ETA construct is not described further; also called CHO-ETA; CHO-ETA-EGFP
T2 sequence (looked up): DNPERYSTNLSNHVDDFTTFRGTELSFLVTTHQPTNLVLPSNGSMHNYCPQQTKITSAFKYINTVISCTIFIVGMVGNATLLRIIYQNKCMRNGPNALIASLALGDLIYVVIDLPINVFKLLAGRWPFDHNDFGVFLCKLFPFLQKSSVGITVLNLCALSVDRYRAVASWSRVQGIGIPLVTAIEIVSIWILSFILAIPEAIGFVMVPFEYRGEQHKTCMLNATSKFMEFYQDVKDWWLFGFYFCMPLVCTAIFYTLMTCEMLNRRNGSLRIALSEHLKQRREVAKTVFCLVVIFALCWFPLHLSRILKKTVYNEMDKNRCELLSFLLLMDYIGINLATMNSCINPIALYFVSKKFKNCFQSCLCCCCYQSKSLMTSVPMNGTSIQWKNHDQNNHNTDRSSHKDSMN

T1 sequence (P07766 23-207): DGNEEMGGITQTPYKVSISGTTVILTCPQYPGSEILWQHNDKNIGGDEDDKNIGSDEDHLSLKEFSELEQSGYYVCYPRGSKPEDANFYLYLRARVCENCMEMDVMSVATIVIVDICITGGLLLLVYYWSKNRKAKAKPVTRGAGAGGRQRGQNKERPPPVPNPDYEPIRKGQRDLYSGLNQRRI

B1: αETA(L5H5,SEQ NO ID:19+SEQ NO ID:20)/αCD3(L3H3,SEQ NO ID:15+SEQ NO ID:16)双特异性抗体 (bispecific antibody)
chain 1: QVTLKESGPTLVKPTQTLTLTCTFSGFSLTTSGLGVAWIRQPPGKALEWLAHIWSDGDTRYYPALKNRLTITKDTSKNQVVLTMTNMDPVDTATYYCAHMKDDSLYFDNWGQGTLVTVSS
chain 2: EIVLTQSPDFQSVTPKEKVTITCRASQNIGTSIHWYQQKPDQSPKLLIKYASKSISGVPSRFSGSGSGTDFTLTINSLEAEDAATYYCQHSYSFPWTFGQGTKVEIK
chain 3: EAVVTQEPSLTVSPGGTVTLTCRSSTGAVTTSNYANWVQQKPGQAPRGLIGGTNKRAPWTPARFSGSLLGGKAALTLSGAQPEDEAEYYCALWYSNLWVFGGGTKLTVL
chain 4: EVQLVESGGGLVQPGGSLRLSCAASGFTFNTYAMNWVRQAPGKGLEWVGRIRSKYNNYATYYADSVKDRFTISRDDSKNTLYLQMNSLRAEDTAVYYCVRHGNFGNSYVSWFAYWGQGTLVTVSS
- EC50 (人CD3): 10.7 nM
- EC50 (人ETA (内皮素受体A)): 3.51 nM
